Experimental findings from PMC10708888, “Evolution towards simplicity in bacterial small heat shock protein system” (eLife, 2023) are described below.

Series [1] addresses heat-aggregated E. coli proteins. Description: biolayer interferometry (BLI). The following applies: value read at the end of the association phase (~60 min), read off a plot.
Series [2] deals with the molecule itself. Description: dynamic light scattering; 10 µM sHsp in buffer F (50 mM Tris pH 7.5, 150 mM KCl, 20 mM MgCl2, 2.5 mM DTT); oligomer size measured at 25 °C and 44 °C in repeated cycles.
For series [3], the target named is T1, His-tagged luciferase, heat-aggregated on the BLI sensor (firefly, UniProt P08659 1-550 = luciferase).
T1 construct: firefly luciferase, His-tagged construct of Obuchowski et al., 2019; anchoring layer attached to NTA sensors in 4.5 M urea, then aggregate formed at 44 °C; also called aggregated luciferase; luciferase aggregates; source: purified as described previously (Obuchowski et al., 2019)
Kind of series: BLI; ForteBio BLItz; His-tagged luciferase aggregated on the sensor; 5 µM sHsp (preincubated 10 min at 44 °C) bound for 10 min, then buffer F or Hsp70 system (0.7 µM DnaK, 0.28 µM DnaJ, 0.21 µM GrpE, 5 mM ATP) for 1 hr; room temperature. As to conditions: both partners purified.

T1 sequence (P08659 whole entry): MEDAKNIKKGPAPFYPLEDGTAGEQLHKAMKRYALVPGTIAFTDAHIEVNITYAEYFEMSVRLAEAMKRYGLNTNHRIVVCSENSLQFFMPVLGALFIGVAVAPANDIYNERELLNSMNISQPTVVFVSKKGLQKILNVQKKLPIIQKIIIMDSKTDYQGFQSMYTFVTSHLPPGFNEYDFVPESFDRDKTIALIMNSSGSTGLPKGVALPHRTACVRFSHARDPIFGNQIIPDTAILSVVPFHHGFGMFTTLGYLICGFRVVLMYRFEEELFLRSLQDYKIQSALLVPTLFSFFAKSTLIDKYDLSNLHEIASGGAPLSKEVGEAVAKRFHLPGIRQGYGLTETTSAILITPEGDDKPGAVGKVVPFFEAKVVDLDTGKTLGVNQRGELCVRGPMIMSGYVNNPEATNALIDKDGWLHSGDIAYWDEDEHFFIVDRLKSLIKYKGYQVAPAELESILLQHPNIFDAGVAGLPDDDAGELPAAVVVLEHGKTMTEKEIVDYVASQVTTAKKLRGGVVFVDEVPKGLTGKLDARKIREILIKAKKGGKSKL

“IbpA from Erwinia amylovora (from UniProt A0ABX7MII2) H67Q; D110G”: the response in series [1] (parent: est. 0.91) was 1.4 nm.

For “IbpA from Escherichia coli (from UniProt P0C054) Q66H; G109D”, in series [1] (parent: est. 2.7), the response came to 1.5 nm.

B1: IbpA_(E.coli) Q66H G109D (natural protein, E. coli, UniProt P0C054 1-137, looked up)
chain: MRNFDLSPLYRSAIGFDRLFNHLENNQSQSNGGYPPYNVELVDENHYRIAIAVAGFAESELEITAHDNLLVVKGAHADEQKERTYLYQGIAERNFERKFQLAENIHVRDANLVNGLLYIDLERVIPEAKKPRRIEIN
notes: IbpA, small heat shock protein of E. coli, with AncA1-like substitutions; source: purified
With B1, the binding result in series [2] and in series [3] was “binds” throughout.

B2: IbpA from Escherichia coli (natural protein, E. coli, UniProt P0C054 1-137, looked up)
chain: MRNFDLSPLYRSAIGFDRLFNHLENNQSQSNGGYPPYNVELVDENHYRIAIAVAGFAESELEITAQDNLLVVKGAHADEQKERTYLYQGIAERNFERKFQLAENIHVRGANLVNGLLYIDLERVIPEAKKPRRIEIN
notes: IbpA, small heat shock protein of E. coli; also called IbpA_(E. coli); IbpAEc; source: purified as described previously (Ratajczak et al., 2009)
For the molecule B2, the binding result in series [3] is “binds”.
